In paper PMC4267654:
Like-named read-outs stand apart in the source and are kept apart here.

How the values were obtained:
[1] = molecular target: T1, R.NgoAVII-B3 (C-terminal B3-like DNA-binding domain) (UniProt Q5F9M9 179-345); test: X-ray crystallography
T1 sequence: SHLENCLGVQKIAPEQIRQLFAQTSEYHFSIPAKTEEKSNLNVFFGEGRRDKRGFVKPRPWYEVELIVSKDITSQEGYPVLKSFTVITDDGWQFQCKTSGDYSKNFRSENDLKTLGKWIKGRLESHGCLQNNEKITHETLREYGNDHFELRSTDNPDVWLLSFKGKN

[2] = molecular target: T1, R.NgoAVII-B3 (C-terminal B3-like …); test: X-ray crystallography; remark: listed apart in the source

B1: DNA-1 cognate oligoduplex (dsDNA)
DNA 1: GGGATTGCCGCTTAGG
DNA 2: CCCTAAGCGGCAATCC
Q: Does B1 bind [1]?
A: binds

B2: DNA-2 oligoduplex (DNA-1 without terminal C1 and G32) (dsDNA)
DNA 1: GGGATTGCCGCTTAG
DNA 2: CCTAAGCGGCAATCC
Q: Does B2 bind [2]?
A: binds
